The source of these data is patent US20190359687A1 (Bayer, published 2019).

Assay [1] concerns the target T1, Cynomolgus monkey glycophorin A on Cynomolgus monkey red blood cells or red blood cell membranes (Cynomolgus monkey).
T1 construct: whole, on cells; also called Cyno RBC; Cynomolgus monkey RBC membranes
Nature of the assay: Fab on intact cyno RBC, unbound Fab by ELISA; 20 min after 200-fold dilution.

The target in assay [2] is T2, human glycophorin A on human red blood cells or red blood cell membranes (human, UniProt P02724 20-150).
T2 construct: whole, on cells; also called hRBC; human RBC membranes
T2 sequence (looked up): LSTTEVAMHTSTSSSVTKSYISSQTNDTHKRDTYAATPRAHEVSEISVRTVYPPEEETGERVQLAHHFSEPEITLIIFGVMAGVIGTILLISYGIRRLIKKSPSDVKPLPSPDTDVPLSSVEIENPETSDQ
In words: Fab on intact human RBC, unbound Fab by ELISA; 5 min after 200-fold dilution.
Protocol: (§1) The binding of affinity matured Fab antibodies to intact human RBC was also measured. Human RBC were isolated from fresh anti-coagulated normal human blood by centrifugation through a ficol gradient and washing in PBS buffer. RBC diluted to 1/10th of normal hematocrit were incubated with purified Fab antibodies at a final concentration of 7 ug/ml for 1 hour at room temperature on a rotating shaker after which a sample was taken and the RBC were pelleted by centrifugation and the supernatant was collected. The remaining RBC suspension was diluted 200-fold in PBS buffer and incubated for a total of 2 hours at room temperature on a rotating shaker and samples were removed at 0, 5 min, 20 min, 1 h and 2 h and the RBC pelleted and the supernatant collected. The amount of Fab in the supernatants was then measured using an ELISA assay and the results used to calculate the percentage of the input Fab that was bound to the RBC. […] The percentage that remains bound after 200-fold dilution of the RBC suspension is an indication of the overall strength of the binding to human RBC.

For assay [3], the target named is T2, human glycophorin A on human red blood …. In words: SPR (Biacore), Fab on human RBC membranes.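 Further: human RBC membranes captured on an L1 sensor chip, Fab fragments passed over as analyte, binding kinetics read by surface plasmon resonance.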
Protocol: (§2) Kinetic analysis of the antibody binding to human red blood cell membranes was also performed using surface plasmon resonance (SPR) using a Biacore instrument. In this assay membranes prepared from human red blood cells were attached to a L1 sensor matrix and antibodies were flowed over the RBC membranes.
(§3) The binding kinetics of the affinity matured Fab antibodies was also measured.
Assay [4] has the same target. In words: SPR (Biacore), Fab on human RBC membranes; T½ = 0.69/kd; * not accurate.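 Further: human RBC membranes captured on an L1 sensor chip, Fab fragments passed over as analyte, binding kinetics read by surface plasmon resonance.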
Protocol: as §2, §3
The target in assay [5] is T1, Cynomolgus monkey glycophorin A on …. Nature of the assay: Fab 7 ug/ml on intact cyno RBC, unbound Fab by ELISA; pre-dilution.
Protocol: (§4) The binding of affinity matured Fab antibodies to intact Cynomolgus monkey RBC was measured. Cynomolgus monkey RBC were isolated from fresh anti-coagulated blood by centrifugation through a ficol gradient and washing in PBS buffer. RBC diluted to 1/10th of normal hematocrit were incubated with the Fab at a final concentration of 7 ug/ml for 1 hour at room temperature on a rotating shaker after which a sample was taken and the RBC were pelleted by centrifugation and the supernatant was collected. The remaining RBC suspension was diluted 200-fold in PBS buffer and incubated for a total of 2 hours at room temperature on a rotating shaker and samples were removed at 0, 5 min, 20 min, 1 h and 2 h and the RBC pelleted and the supernatant collected. […] The amount of Fab in the supernatants was then measured using an ELISA assay and the results used to calculate the percentage of the input Fab that was bound to the RBC.
Assay [6] concerns the target T2, human glycophorin A on human red blood …. In words: Fab on intact human RBC, unbound Fab by ELISA; 20 min after 200-fold dilution.
Protocol: as §1
Assay [7] deals with T1, Cynomolgus monkey glycophorin A on …. Nature of the assay: Fab on intact cyno RBC, unbound Fab by ELISA; 0 min after 200-fold dilution.
Protocol: as §4
For assay [8] the target is unchanged. In words: Fab on intact cyno RBC, unbound Fab by ELISA; 120 min after 200-fold dilution.
Protocol: as §4
The target of assay [9] is T2, human glycophorin A on human red blood …. In words: Fab on intact human RBC, unbound Fab by ELISA; 120 min after 200-fold dilution.
Protocol: as §1
The target in assay [10] is T1, Cynomolgus monkey glycophorin A on …. In words: Fab on intact cyno RBC, unbound Fab by ELISA; 5 min after 200-fold dilution.
In assay [11] the target is T2, human glycophorin A on human red blood …. Nature of the assay: SPR (Biacore), Fab on human RBC membranes; * not accurate, instrument limit.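 Further: human RBC membranes captured on an L1 sensor chip, Fab fragments passed over as analyte, binding kinetics read by surface plasmon resonance.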
Protocol: as §2, §3
Assay [12] has the same target. Nature of the assay: Fab on intact human RBC, unbound Fab by ELISA; 0 min after 200-fold dilution.
Protocol: as §1
The target of assay [13] is T1, Cynomolgus monkey glycophorin A on …. Nature of the assay: Fab on intact cyno RBC, unbound Fab by ELISA; 60 min after 200-fold dilution.
Assay [14] has as its target T2, human glycophorin A on human red blood …. Nature of the assay: Fab on intact human RBC, unbound Fab by ELISA; 60 min after 200-fold dilution.
Assay [15] shares this target. In words: Fab 7 ug/ml on intact human RBC, unbound Fab by ELISA; pre-dilution.
The target is the same in assay [16]. In words: SPR (Biacore), Fab over human RBC membranes, 1:1 fit; * slight deviation possible.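 Further: human RBC membrane preparations captured on an L1 sensor surface, with antibody passed over them as analyte.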
Protocol: as §2
Assay [17] concerns the target T3, native human glycophorin A protein (human, UniProt P02724 20-150).
T3 construct: mature; also called Hu-nat GPA
T3 sequence (looked up): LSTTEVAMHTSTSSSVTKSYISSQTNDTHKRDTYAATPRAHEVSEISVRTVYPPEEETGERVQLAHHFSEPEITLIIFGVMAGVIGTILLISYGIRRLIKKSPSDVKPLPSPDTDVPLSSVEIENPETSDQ
Nature of the assay: ELISA, Fab on coated native human GPA.

Assay [18] has as its target T4, Cynomolgus monkey recombinant glycophorin A ectodomain (Cynomolgus monkey).
T4 construct: extracellular domain
In words: ELISA, Fab on coated recombinant cyno GPA ectodomain.

Assay [19] concerns the target T5, recombinant human glycophorin A ectodomain protein (human, UniProt P02724 20-91).
T5 construct: 72 amino acids of the extracellular region; also called Hu-rec GPA
T5 sequence: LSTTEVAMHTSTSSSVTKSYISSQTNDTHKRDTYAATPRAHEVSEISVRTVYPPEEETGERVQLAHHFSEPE
Nature of the assay: ELISA, Fab on coated recombinant human GPA ectodomain.

The target of assay [20] is T2, human glycophorin A on human red blood …. In words: ELISA, Fab on coated human RBC membranes.
The target is the same in assay [21]. Nature of the assay: SPR (Biacore), Fab over human RBC membranes, 1:1 fit.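 Further: human RBC membrane preparations captured on an L1 sensor surface, with antibody passed over them as analyte.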
Protocol: as §2
In assay [22] the target is T1, Cynomolgus monkey glycophorin A on …. In words: ELISA, Fab on coated cyno RBC membranes.

B1: TPP-7783, affinity matured 6C12 Fab (Fab, V domains shown)
VH: EVQLVQSGAEVKKPGASVKVSCKASGYTFTTYAIHWVRQAPGQGLEWMGYINPSSGYTRYNPKFKHRVTMTRDKSTSTAYMELRSLRSDDTAVYYCWTGTRDYWGQGTTVTVSS
VL: DIQLTQSPSFLSASVGDRVTITCRASSSVRYIYWFQQKPGKAPKLLIYATSFRRSGVPSRFSGSGSGTEYTLTISSLQPEDFATYYCHQRNSFPYTFGQGTKLEIK
notes: Tested as Fab
For the molecule B1, the “percentage of input antibody bound” value in assay [1] stood at 62%; in [2], 86%; in [5], 72%; in [6], 86%; in [7], 60%; in assay [8] it was 56%. Besides, the “percentage of input antibody bound” value in assay [9] was found to be 85%; in assay [10], 62%; in [12] it was 87%; in assay [13], 64%; in [14] it was 84%; in assay [15] it was 90%. In addition, the kon in assay [3] worked out at 267000 M⁻¹ s⁻¹. For the same molecule, in [4], the “Estimated T½” value is 33 days. In addition, the Kd in [11] amounted to 0.000904 nM. The molecule further had a koff in [11] of 2.42e-07 s⁻¹.

B2: TPP-4935, humanized 6C12 parental Fab (Hu6C12-24) (Fab, V domains shown)
VH: EVQLVQSGAEVKKPGASVKVSCKASGYTFTTYTIHWVRQAPGQGLEWIGYINPSSDYTRYNPKFKDRVTLTTDKSTSTAYMELRSLRSDDTAVYYCQTGTRDYWGQGTTVTVSS
VL: DIQLTQSPSFLSASVGDRVTITCSAASSVSYIYWFQQKPGKAPKLLIYSTSTLPSGVPSRFSGSGSGTEYTLTISSLQPEDFATYYCHQRNSFPFTFGQGTKLEIKR
notes: also called parent Fab; TPP-4935 (Parental)
As for B2, binding in assay [16] was characterised by a dissociation constant (Kd) of 167 nM. The same molecule returned a koff in assay [16] of 0.031 s⁻¹. In assay [16], this molecule displayed a kon of 190000 M⁻¹ s⁻¹. The “binding in ELISA relative to parental Fab” value in [17], in assay [18], in [19] and in [20] was 1 relative to parental Fab each time.

B3: TPP-7794, affinity matured 6C12 Fab (Fab, V domains shown)
VH: EVQLVQSGAEVKKPGASVKVSCKASGYTFTTYAIHWVRQAPGQGLEWMGYINPSSGYTRYNPKFKHRVTMTRDKSTSTAYMELRSLRSDDTAVYYCWTGTRDYWGQGTTVTVSS
VL: DIQLTQSPSFLSASVGDRVTITCRASSSVRYIYWFQQKPGKAPKLLIYATSFRQSGVPSRFSGSGSGTEYTLTISSLQPEDFATYYCHQRNSFPYTFGQGTKLEIK
notes: Tested as Fab
With B3, the “percentage of input antibody bound” value came to 65% in [1]; 91% in [2]; 73% in [5]; 90% in [6]; 67% in assay [7]; 57% in assay [8]. Besides, the “percentage of input antibody bound” value in assay [9] was determined as 90%; in [10], 66%; in assay [12], 92%; in assay [13], 67%; in assay [14], 90%; in assay [15], 93%. Further, in assay [4], the “Estimated T½” value was 922 days. The Kd in assay [11] is less than 0.01 nM. The molecule also registered a koff in assay [11] of less than 2e-05 s⁻¹. The molecule further yielded an association rate constant (kon) in assay [11] of 2.22e+07 M⁻¹ s⁻¹.

B4: TPP-5841, Hu6C12-24 Fab variant VL: (S24R, A26S, S49A, P54Q, F95Y); VH: (D66G, L70M) (Fab, V domains shown)
VH: EVQLVQSGAEVKKPGASVKVSCKASGYTFTTYTIHWVRQAPGQGLEWIGYINPSSDYTRYNPKFKGRVTMTTDKSTSTAYMELRSLRSDDTAVYYCQTGTRDYWGQGTTVTVSS
VL: DIQLTQSPSFLSASVGDRVTITCRASSSVSYIYWFQQKPGKAPKLLIYATSTLQSGVPSRFSGSGSGTEYTLTISSLQPEDFATYYCHQRNSFPYTFGQGTKLEIKR
notes: Built on the parental Fab TPP-4935
Molecule B4 showed a Kd in assay [21] of 3.3 nM. For the same molecule, the koff in [21] turned out to be 0.0043 s⁻¹. This molecule also showed a kon in assay [21] of 1.3e+06 M⁻¹ s⁻¹. In addition, the “binding in ELISA relative to parental Fab” value was 5.8 relative to parental Fab in [17]; 1.2 relative to parental Fab in [18]; 4.7 relative to parental Fab in assay [19]; 11.9 relative to parental Fab in [20]; 2.1 relative to parental Fab in assay [22].

B5: TPP-5907, humanized and germlined 6C12 Fab; VL: (S24R, A26S, S49A, P54Q, F95Y); VH: (I48M, S54G, D56G, D66G, L70M, T72R) (Fab, V domains shown)
VH: EVQLVQSGAEVKKPGASVKVSCKASGYTFTTYTIHWVRQAPGQGLEWMGYINPGSGYTRYNPKFKGRVTMTRDKSTSTAYMELRSLRSDDTAVYYCQTGTRDYWGQGTTVTVSS
VL: DIQLTQSPSFLSASVGDRVTITCRASSSVSYIYWFQQKPGKAPKLLIYATSTLQSGVPSRFSGSGSGTEYTLTISSLQPEDFATYYCHQRNSFPYTFGQGTKLEIKR
For B5, the Kd in assay [21] was determined as 0.8 nM. The molecule further showed a koff in assay [21] of 0.004 s⁻¹. In assay [21], this molecule displayed an on-rate constant (kon) of 4.9e+06 M⁻¹ s⁻¹. The “binding in ELISA relative to parental Fab” value in [17] was 12.3 relative to parental Fab; in assay [18], 1.4 relative to parental Fab; in assay [19] it was 6.9 relative to parental Fab; in assay [20] it was 90.1 relative to parental Fab; in [22] it was 1.9 relative to parental Fab.

B6: TPP-7797, affinity matured 6C12 Fab (Fab, V domains shown)
VH: EVQLVQSGAEVKKPGASVKVSCKASGYTFTTYTIHWVRQAPGQGLEWMGYINPSSGYTRYNPKFKGRVTMTRDKSTSTAYMELRSLRSDDTAVYYCWTGRRDYWGQGTTVTVSS
VL: DIQLTQSPSFLSASVGDRVTITCRASSSVRYIYWFQQKPGKAPKLLIYATSFRQSGVPSRFSGSGSGTEYTLTISSLQPEDFATYYCHQRNSFPYTFGQGTKLEIK
notes: Tested as Fab
For the molecule B6, the “percentage of input antibody bound” value in [1] worked out at 59%; in [2], 95%; in assay [5] it was 79%; in assay [6], 94%; in [7], 81%; in assay [8], 50%. In addition, the “percentage of input antibody bound” value in assay [9] is 92%; in [10] it was 66%; in [12], 96%; in [13], 56%; in [14] it was 94%; in assay [15], 97%. The “Estimated T½” value in [4] was 0.487 days. The molecule also displayed a dissociation constant (Kd) in assay [11] of 0.000253 nM. In addition, the koff in assay [11] was 1.64e-05 s⁻¹. Further, the kon in [11] came out at 6.49e+07 M⁻¹ s⁻¹.
